Measured values: the DeepSol protein solubility set

Experiment: soluble on expression in E. coli; label from the status in PepcDB or PDB records

| Sequence | soluble on expression in E. coli |
| --- | --- |
| TETMTVTATGNARSSFEAPMMVSVIDTSAPENQTATSATDLLRHVPGITLDGTGRTNGQDINMRGYDHRGVLVLVDGIRQGTDTGHLNGTFLDPALIKRVEIVRGPSALLYGSGALGGVISYDTVDAKDLLQEGQSSGFRVFGTGGTGDHSLGLGASAFGRTENLDGIVAWSSRDRGDLRQSNGETAPNDESINNMLAKGTWQIDSAQSLSGLVRYYNNDAREPKNPQTVEASESSNPMVDRSTIQRDAQLSYKLAPQGNDWLNADAKIYWSEVRINAQNTGSSGEYREQITKGARLENRSTLFADSFASHLLTYGGEYYRQEQGSHHHHHHHPGGATTGFPQAKIDFSSGWLQDEITLRDLPITLLGGTRYDSYRGSSDGYKDVDADKWSSRAGMTINPTNWLMLFGSYAQAFRAPTMGEMYNDSKHFSIGRFYTNYWVPNPNLRPETNETQEYGFGLRFDDLMLSNDALEFKASYFDTKAKDYISTTVDFAAATTMSYNVPNAKIWGWDVMTKYTTDLFSLDVAYNRTRGKDTDTGEYISSINPDTVTSTLNIPIAHSGFSVGWVGTFADRSTHISSSYSKQPGYGVNDFYVSYQGQQALKGMTTTLVLGNAFDKEYWSPQGIPQDGRNGKIFVSYQW | soluble |
| TGAGTPSQGKKNTTTHTKCRRCGEKSYHTKKKVCSSCGFGKSAKRRDYEWQSKAGE | soluble |
| TGEESLQQVAMRASRLGLPKEHLKMLSETNVDKICQIAEKEQPRIMVIDSIQVMHVSDVQSSPGSVAQVRESATALTRYAKQNNVAVFIVGHVTKDGTLAGPKVLEHIIDCSVLLDGGTDSRFRTLRSHKNRFGAVNELGVFAMTGQGLKEVSNPSAIFLSRGEEETSGSSVMVVWEGTRPLLVEIQALVDYSQLANPRRVAVGLEQNRLSLLLAVLHKHGGLQMADQDVFVNVVGGV | not soluble |
| THQMNQFYTTGAGRDIFATDEAKQVSAHLANEVDQLAQSLLKKEVYDKTKLFVADFVRQYPFADLSMIRTPAYRAWLEANQISEEDAVTTLGTMPEALGDVSDRLSLVSEQTPKIMTWKAQLLALNSSASIEKVNAALNSLQVTADSMRDFIDNNPEYMRYLAEQMAVELQPLVDDIDQKTEARLSQLGEERQALEEMVARERQEIALIITHEREKFAQDMDRVSQEVVNLAMTKLIELVKST | not soluble |
| TKLTEQQTMNGLLRFGEYQRIIERRSFSLLDMKRFVTALGLESGGYRGEFSDLVNQGQPAIVPISYAGFKHFVVYKGYKDGRVYVADPALGNISFDEVRFKEIWENNTLFLIQVPE | not soluble |
| TLLPQVQEVAYNQMANAGYEGAVVAIKPSTGEILAMASTPSYDPSAIVNPDTAEQTWAALNADPGNPLLNHATQETLPPGSTFKVITTAAGLNAGYGPGSMLTGQDRITLPDGITTLENYAGQTCAGSQNVTLATAFQYSCNTAFVQMGIDVGKEKFDEAAHAFGVNDRYDLGVDMAPGTIGDVSDPSARGQSSIGQRDVAMSVLHNAVVAATVANGGKRMEPHLVNRIVGQDLKVIKETKPHQINEAVTPEVAATLTDLMRLSERHTAGYTGADIASKTGTAEHGEDSRNSNPHAWYIAFGPSANADVAVAVVVKNGGDAGQAATGGSVAAPIGRAVIAAAQAALAARG | not soluble |
| TNTEAFCTSCHEMQSNVFEELTRTVHYTNRSGVRAGCPDCHVPHEWTDKIARKMQASKEVWGHLFGTIDTRRKFLDNRLRLAEHEWARLKANDSLECRNCHSEVAMDFTRQTDRAAQIHTQYLIQTEGYTCIDCHKGIAHEL | not soluble |
| TPIPHKITSFAEQMRGLRSESKVLELVVIPADHSIAELLKMKENEPVNKLVRVRYAEGEPLQYHTSYIPWKAAPGLAQEECTGSLFELLRTKYNIEISRGTESIEPILTDETISGHLLTNVGAPAFLSESLTYDKNEEVVEYAQIITRGDRTKFTVEQSYHS | not soluble |
| TRDFMWRLGLNLTHYKNVVTDLPLKDMPVSGVHKLAVGRSVYDFYMKKWAGVDPENGDPLWYKNVKDANNKITGRTTTNDYAQADYYYTGKSSLPKVYGGFNTAFSYKGFELSTIFAYSIGNYIVDRDVTMLWHNGSSTGRAWSTEILNRWTPENRYTDVPALKTVSNSWNANSTRNLFNNSFLRMKNITLSYNFPQPMIKKISLNSLQLFVQADNLLTVSKNQGLDPEQDISGLTYYRYPAMRSISGGINVSF | not soluble |
| TRPIFAIEQLSPYQNVWTIKARVSYKGEIKTWHNQRGDGKLFNVNFLDTSGEIRATAFNDFATKFNEILQEGKVYYVSKAKLQPAKPQFTNLTHPYELNLDRDTVIEECFDESN | soluble |
